Target: N-terminal 6X-His-Tagged Caspar (Drosophila)
Test: SEC

- stoichiometry N: 2
Substance: N-terminal 6X-His-Tagged Caspar (natural protein)
